Reference: IntAct's records for PubMed 26711270

B1: Protein ecdysoneless homolog (Homo sapiens), O95905 (parent)
chain: MEETMKLATMEDTVEYCLFLIPDESRDSDKHKEILQKYIERIITRFAPMLVPYIWQNQPFNLKYKPGKGGVPAHMFGVTKFGDNIEDEWFIVYVIKQITKEFPELVARIEDNDGEFLLIEAADFLPKWLDPENSTNRVFFCHGELCIIPAPRKSGAESWLPTTPPTIPQALNIITAHSEKILASESIRAAVNRRIRGYPEKIQASLHRAHCFLPAGIVAVLKQRPRLVAAAVQAFYLRDPIDLRACRVFKTFLPETRIMTSVTFTKCLYAQLVQQRFVPDRRSGYRLPPPSDPQYRAHELGMKLAHGFEILCSKCSPHFSDCKKSLVTASPLWASFLESLKKNDYFKGLIEGSAQYRERLEMAENYFQLSVDWPESSLAMSPGEEILTLLQTIPFDIEDLKKEAANLPPEDDDQWLDLSPDQLDQLLQEAVGKKESESVSKEEKEQNYDLTEVSESMKAFISKVSTHKGAELPREPSEAPITFDADSFLNYFDKILGPRPNESDSDDLDDEDFECLDSDDDLDFETHEPGEEASLKGTLDNLKSYMAQMDQELAHTCISKSFTTRNQVEPVSQTTDNNSDEEDSGTGESVMAPVDVDLNLVSNILESYSSQAGLAGPASNLLQSMGVQLPDNTDHRPTSKPTKN

Variants of: B1
Details: with pihd1_human PIH1D1, Q9NWS0
Sequence of pihd1_human PIH1D1, Q9NWS0 (Q9NWS0 whole entry): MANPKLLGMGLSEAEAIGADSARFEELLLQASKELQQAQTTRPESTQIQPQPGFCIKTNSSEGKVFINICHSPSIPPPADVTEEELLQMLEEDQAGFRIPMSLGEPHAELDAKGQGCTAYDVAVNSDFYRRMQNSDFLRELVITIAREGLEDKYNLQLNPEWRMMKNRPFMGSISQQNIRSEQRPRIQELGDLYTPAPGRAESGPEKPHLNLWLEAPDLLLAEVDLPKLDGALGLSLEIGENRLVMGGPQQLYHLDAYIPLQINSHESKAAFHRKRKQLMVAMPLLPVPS

effect of a mutation on the interaction | Variant
disrupting interaction | S503A;S505A;S518A
disrupting interaction | S503A;S505A;S518A;S572A;S579A;S584A
disrupting interaction | S503D;S505D;S518D;S572D;S579D;S584D
